First the molecules themselves.
B1: CLINT1 (parent)
chain: VVTSAREHIYDLRSLENYHFVDEH
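Note: lentivirally expressed fusions sorted by FACS into six bins by GFP to DsRed ratio, PSI derived from sequencing read proportions per bin multiplied by bin number.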

In this series the parent is B1. The series can be described thus: protein stability index of a GFP-peptide fusion (GPS, HEK-293T) (PSI 1-6); higher = more stable. The note with it: c terminus: a fixed tail appended.
RVTSAREHIYDLRSLENYHFVDEH: the protein stability index worked out at 2.92.
For the variant TVTSAREHIYDLRSLENYHFVDEH, the protein stability index was 3.63.
In the case of MVTSAREHIYDLRSLENYHFVDEH, the protein stability index came to 2.88.
As for HVTSAREHIYDLRSLENYHFVDEH, the protein stability index was 3.35.
For NVTSAREHIYDLRSLENYHFVDEH, the protein stability index turned out to be 3.8.
For IVTSAREHIYDLRSLENYHFVDEH the value was 2.67; for WVTSAREHIYDLRSLENYHFVDEH, 2.47; for KVTSAREHIYDLRSLENYHFVDEH, 3.45.
For LVTSAREHIYDLRSLENYHFVDEH the value was 2.62; for SVTSAREHIYDLRSLENYHFVDEH, 3.68; for YVTSAREHIYDLRSLENYHFVDEH, 1.5.
Regarding QVTSAREHIYDLRSLENYHFVDEH, the protein stability index was found to be 3.5.
For PVTSAREHIYDLRSLENYHFVDEH, the protein stability index came to 3.5.
For VVTGAREHIYDLRSLENYHFVDEH, the protein stability index was 2.73.
Take VVTKAREHIYDLRSLENYHFVDEH: the protein stability index amounted to 2.52.
Regarding VVTPAREHIYDLRSLENYHFVDEH, the protein stability index stood at 3.4.
For the variant VVTNAREHIYDLRSLENYHFVDEH, the protein stability index is 2.84.
Consider VVTEAREHIYDLRSLENYHFVDEH, for which the protein stability index stood at 3.04.
As for VVTFAREHIYDLRSLENYHFVDEH, the protein stability index is 2.03.
In the case of VVTDAREHIYDLRSLENYHFVDEH, the protein stability index worked out at 3.82.
For the variant VVTQAREHIYDLRSLENYHFVDEH, the protein stability index came to 2.91.
In the case of VVTMAREHIYDLRSLENYHFVDEH, the protein stability index stood at 2.24.
As for VVTTAREHIYDLRSLENYHFVDEH, the protein stability index came out at 3.18.
For VVTCAREHIYDLRSLENYHFVDEH, the protein stability index is 1.64.
Consider VVTWAREHIYDLRSLENYHFVDEH, for which the protein stability index turned out to be 2.48.
Regarding VVTAAREHIYDLRSLENYHFVDEH, the protein stability index is 2.41.
With VVTVAREHIYDLRSLENYHFVDEH, the protein stability index stood at 2.47.
For the variant VVTIAREHIYDLRSLENYHFVDEH, the protein stability index came to 2.1.
For VVTYAREHIYDLRSLENYHFVDEH, the protein stability index was found to be 1.48.
Turning to VVTHAREHIYDLRSLENYHFVDEH, the protein stability index is 2.82.
In the case of VVTLAREHIYDLRSLENYHFVDEH, the protein stability index was 1.95.
For VVTRAREHIYDLRSLENYHFVDEH the value was 2.65; for VVTSAREHIYELRSLENYHFVDEH, 2.38.
For the variant VVTSAREHIYFLRSLENYHFVDEH, the protein stability index came to 1.25.
On to VVTSAREHIYCLRSLENYHFVDEH, for which the protein stability index came to 2.4.
Next, VVTSAREHIYGLRSLENYHFVDEH: 2.61; VVTSAREHIYALRSLENYHFVDEH: 2.79; VVTSAREDIYDLRSLENYHFVDEH: 3.48.
Regarding VVTSAREWIYDLRSLENYHFVDEH, the protein stability index amounted to 2.12.
In the case of VVTSARETIYDLRSLENYHFVDEH, the protein stability index worked out at 2.91.
For the variant VVTSAREMIYDLRSLENYHFVDEH, the protein stability index amounted to 2.33.
Consider VVTSAREVIYDLRSLENYHFVDEH, for which the protein stability index was 2.22.
For the variant VVTSARECIYDLRSLENYHFVDEH, the protein stability index was found to be 2.1.
In the case of VVTSARENIYDLRSLENYHFVDEH, the protein stability index is 2.83.
As for VVTSARELIYDLRSLENYHFVDEH, the protein stability index turned out to be 2.29.
On to VVTSAREEIYDLRSLENYHFVDEH, for which the protein stability index was 2.99.
VVTSAREPIYDLRSLENYHFVDEH: the protein stability index was determined as 3.21.
Next, VVTSAREFIYDLRSLENYHFVDEH: 1.9.
Next, VVTSAREGIYDLRSLENYHFVDEH: 3.13; VVTSAREKIYDLRSLENYHFVDEH: 2.45; VVTSARESIYDLRSLENYHFVDEH: 3.31.
As for VVTSARERIYDLRSLENYHFVDEH, the protein stability index came to 2.61.
For VVTSAREAIYDLRSLENYHFVDEH the value was 2.52; for VVTSAREQIYDLRSLENYHFVDEH, 3.16.
Regarding VVTSAREIIYDLRSLENYHFVDEH, the protein stability index stood at 2.65.
For the variant VVTSAREYIYDLRSLENYHFVDEH, the protein stability index was found to be 1.89.
For VVTSHREHIYDLRSLENYHFVDEH the value was 2.83; for VVTSKREHIYDLRSLENYHFVDEH, 2.36; for VVTSDREHIYDLRSLENYHFVDEH, 3.53.
As for VVTSFREHIYDLRSLENYHFVDEH, the protein stability index stood at 2.53.
Consider VVTSCREHIYDLRSLENYHFVDEH, for which the protein stability index worked out at 2.08.
Next, VVTSVREHIYDLRSLENYHFVDEH: 2.24; VVTSQREHIYDLRSLENYHFVDEH: 3.71; VVTSRREHIYDLRSLENYHFVDEH: 2.67.
As to VVTSMREHIYDLRSLENYHFVDEH, the protein stability index came out at 2.57.
For VVTSWREHIYDLRSLENYHFVDEH the value was 2.16; for VVTSGREHIYDLRSLENYHFVDEH, 3.15; for VVTSEREHIYDLRSLENYHFVDEH, 3.81.
On to VVTSTREHIYDLRSLENYHFVDEH, for which the protein stability index was found to be 2.98.
As for VVTSYREHIYDLRSLENYHFVDEH, the protein stability index is 2.24.
Regarding VVTSIREHIYDLRSLENYHFVDEH, the protein stability index came out at 3.23.
For the variant VVTSSREHIYDLRSLENYHFVDEH, the protein stability index worked out at 3.15.
VVTSNREHIYDLRSLENYHFVDEH: the protein stability index worked out at 2.92.
Turning to VVTSLREHIYDLRSLENYHFVDEH, the protein stability index was 1.97.
VVTSPREHIYDLRSLENYHFVDEH: the protein stability index was 3.35.
For the variant VVTSAREHHYDLRSLENYHFVDEH, the protein stability index turned out to be 3.24.
In the case of VVTSAREHAYDLRSLENYHFVDEH, the protein stability index came out at 2.98.
For the variant VVTSAREHCYDLRSLENYHFVDEH, the protein stability index was found to be 2.83.
VVTSAREHTYDLRSLENYHFVDEH: the protein stability index stood at 3.31.
On to VVTSAREHNYDLRSLENYHFVDEH, for which the protein stability index stood at 4.5.
In the case of VVTSAREHMYDLRSLENYHFVDEH, the protein stability index was 3.06.
On to VVTSAREHSYDLRSLENYHFVDEH, for which the protein stability index is 4.07.
On to VVTSAREHGYDLRSLENYHFVDEH, for which the protein stability index turned out to be 3.83.
As for VVTSAREHRYDLRSLENYHFVDEH, the protein stability index was determined as 3.66.
For VVTSAREHWYDLRSLENYHFVDEH the value was 2.21.
For the variant VVTSAREHEYDLRSLENYHFVDEH, the protein stability index is 3.62.
As to VVTSAREHYYDLRSLENYHFVDEH, the protein stability index stood at 2.15.
For VVTSAREHKYDLRSLENYHFVDEH the value was 3.48; for VVTSAREHPYDLRSLENYHFVDEH, 3.59; for VVTSAREHQYDLRSLENYHFVDEH, 4.09.
For the variant VVTSAREHLYDLRSLENYHFVDEH, the protein stability index is 2.83.
Next, VVTSAREHVYDLRSLENYHFVDEH: 3.16.
As to VVTSAREHFYDLRSLENYHFVDEH, the protein stability index amounted to 2.61.
For the variant VVTSAREHDYDLRSLENYHFVDEH, the protein stability index was determined as 3.54.

The record behind these values is the supplement of paper PMC10567573.
